Test results published in article PMC7226325.

Target: recombinant Tepary bean lectin (rTBL-1) (Phaseolus acutifolius (Tepary bean))
Experiment: SEC; ENrich SEC 650 column, calibrated with gel filtration standard; 200 uL of protein at 10 mg/mL; 20 mM MES pH 6.5, 100 mM NaCl

stoichiometry N: 4
Substance: recombinant Tepary bean lectin (rTBL-1) (natural protein)
